Consider one molecule from publication PMC11273609, “Single-Molecule Detection of the Encounter and Productive Electron Transfer Complexes of a Photosynthetic Reaction Center” (Journal of the American Chemical Society, 2024).

Conditions in all cases: both partners purified
Assay [1] has as its target T1, wild-type reaction center-light harvesting complex 1 (RC-LH1), His10-tag on the RC H-subunit (Rhodobacter sphaeroides, UniProt P0C0Y7 1-260; P0C0Y8 1-282; P0C0Y9 1-308; P0C0X9 1-55; P0C0Y1 7-49; P13402 1-82). Briefly: single-molecule force spectroscopy (AFM, PF-QNM); cyt c2-His6 on the AFM probe via Ni2+-NTA and a PEG linker, His10-tagged RC-LH1 or RC-only complexes on a Ni2+-NTA SiOx substrate; oxidized RC, reduced cyt c2; 10 mM HEPES pH 7.4, 10 mM NaCl.

Assay [2] concerns the target T2, N(M188)D mutant RC-LH1 complex, His10-tag on the RC H-subunit (Rhodobacter sphaeroides, UniProt P0C0Y7 1-260; P0C0Y8 1-282; P0C0Y9 1-308; P0C0X9 1-55; P0C0Y1 7-49; P13402 1-82, N(M188)D). Described as above.
Assay [3] deals with T3, D(M184)K mutant RC-LH1 complex, His10-tag on the RC H-subunit (Rhodobacter sphaeroides, UniProt P0C0Y7 1-260; P0C0Y8 1-282; P0C0Y9 1-308; P0C0X9 1-55; P0C0Y1 7-49; P13402 1-82, D(M184)K). Described as above.
In assay [4] the target is T4, Q(L264)E mutant RC-LH1 complex, His10-tag on the RC H-subunit (Rhodobacter sphaeroides, UniProt P0C0Y7 1-260; P0C0Y8 1-282; P0C0Y9 1-308; P0C0X9 1-55; P0C0Y1 7-49; P13402 1-82, Q(L264)E). The assay is described as above.
Assay [5] deals with T1, wild-type reaction center-light …. Briefly: single-molecule force spectroscopy (AFM, PF-QNM); cyt c2-His6 on the AFM probe, His10-tagged RC-LH1 on the SiOx substrate; oxidized RC-LH1, oxidized cyt c2 (probe treated with 0.8 mM potassium ferricyanide); 10 mM HEPES pH 7.4, 10 mM NaCl.
Assay [6] has as its target T2, N(M188)D mutant RC-LH1 complex, …. The description is as above.
The target in assay [7] is T3, D(M184)K mutant RC-LH1 complex, …. Described as above.
The target in assay [8] is T4, Q(L264)E mutant RC-LH1 complex, …. The description is as above.

B1: cytochrome c2 (cyt c2), His6-tagged (natural protein)
chain: QEGDPEAGAKAFNQCQTCHVIVDDSGTTIAGRNAKTGPNLYGVVGRTAGTQADFKGYGEGMKEAGAKGLAWDEEHFVQYVQDPTKFLKEYTGDAKAKGKMTFKLKKEADAHNIWAYLQQVAVRP
notes: cytochrome c2 of Rhodobacter sphaeroides (gene cycA); the His6-tag follows the C-terminal residue Pro124; Carries a heme cofactor; used pre-reduced (dithionite and phenazine methosulfate) or pre-oxidized (ferricyanide), the redox state is told in the assay; also called reduced cyt c2; oxidized cyt c2; not shown: His6, C-terminal, kept
With B1, the cumulative interaction probability was around 34% in assay [1]; 40% in assay [2]; 24% in assay [3]; 39% in assay [4]; 32% in assay [5]; 37% in assay [6]. The results for the cumulative interaction probability in assay [7] and in assay [8] were 20% and 36%, respectively.
